# T1: Bacteriorhodopsin (Halobacterium salinarum S9), P02945
# T1 chain: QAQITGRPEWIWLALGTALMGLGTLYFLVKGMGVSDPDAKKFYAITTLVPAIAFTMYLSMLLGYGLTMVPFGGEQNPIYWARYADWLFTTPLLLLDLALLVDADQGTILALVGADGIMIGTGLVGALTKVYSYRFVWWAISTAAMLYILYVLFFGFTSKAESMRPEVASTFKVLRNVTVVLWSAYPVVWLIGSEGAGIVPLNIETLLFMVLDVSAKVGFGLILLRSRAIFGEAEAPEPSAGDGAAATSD
# B1: Bacteriorhodopsin, P02945 14-262 (natural protein)
# chain: T1 chain
# modifications: here or on the partner: retinal Schiff base (residue not given); retinal Schiff base (residue not given)
# Legend:
# [1] = biological target: T1, Bacteriorhodopsin (Halobacterium …); test: circular dichroism in the visible range; bR in native purple membrane (PM); 700-400 nm, 20 °C; a biphasic signal marks the trimer; conditions: remark: other sources report otherwise
# [2] = biological target: T1, Bacteriorhodopsin (Halobacterium …); test: circular dichroism in the visible range; bR in PMND (cE3D1 nanodisc assembled directly from PM), SEC-purified early fractions 1 to 6; 700-400 nm, 20 °C; a biphasic signal marks the trimer; conditions: remark: other sources report otherwise
binder,measurement,setting,value
B1,stoichiometry N,[1],3
same,stoichiometry N,[2],3

# — PMC6131177
